Data taken from the DeepSol protein solubility set.

Assay: soluble on expression in E. coli; label from the status in PepcDB or PDB records

MAEIKHYQFNVVMTCSGCSGAVNKVLTKLEPDVSKIDISLEKQLVDVYTTLPYDFILEKIKKTGKEVRSGKQLAREVILAVHGMTCSACTNTINTQLRALKGVTKCDISLVTNECQVTYDNEVTADSIKEIIEDCGFDCEILRDS
soluble on expression in E. coli: soluble

GMELTALDKLEIMELAARFEMSLDKEDVENYLATFASDGALQGFWGIAKGKEELRQGFYAMLDTFARGKRHCSSNAIIQGNYDEATMESYLTVVNREDLNRAGSAFVKDQVRKINGKWYLILRQIEVDPSLPLLQQSQQAGANA
soluble on expression in E. coli: soluble

MSYNEKSSKSIHEKRAIAKYAASLIEDGDCIFVDAGTTTYELIDYLEGKDILVVSNGLSHIDTLIQKNIKCYVIGGNIKISTKAITGCDALMCLSKFRFDKCFIGANGVHHTYGLTTPDTEEAILKECAINNSRKAYVLADDSKFGEISTIKFSDINKCVIITNEKPKDLEHHHHHH
soluble on expression in E. coli: not soluble

MDPGKKKQHICHIQGCGKVYGKTSHLRAHLRWHTGER
soluble on expression in E. coli: soluble

MCESKIDRNRIWIVGTNATYPPFEYVDAQGEVVGFDIDLAKAISEKLGKQLEVREFAFDALILNLKKHRIDAILAGMSITPSRQKEIALLPYYGDEVQELMVVSKRSLETPVLPLTQHSSVAVQTGTFQEHYLLSQPGICVRSFDSTLEVIMEVRYGKSPVAVLEPSVGRVVLKDFPNLVATRLELPPECWVLGCGLGVAKDRPEEIQTIQQAITDLKSEGVIQSLTKKWQLSEVAYELEHHHHHH
soluble on expression in E. coli: soluble

MSSQPNQSLIDGIRCLQYLVSSDRAIGCRELARLMDINTTRVNRLLMTMASIGLTMQDEHRRYLPGPGIHALAAQAIRGSALFSHALPILERHAPKDIVVALGVLWEDQIIYIYHSTPGSQGSQALAGFRMYPAWQSVPGVALLAAESDEALMQRFTPEQWRNLAPHVAQQRQRGYVLWHHADGEVSMAQPLGKHAAALAFAGMWRIDEAEAAARLQALKALNQLIAQ
soluble on expression in E. coli: not soluble

GMSKLSLIQQLKQQKLSVGILSANWLQLNEEVTTLLENQINVLHFDIADGQFSSLFTVGAIGIKYFPTHCFKDVHLMVRNQLEVAKAVVANGANLVTLQLEQYHDFALTIEWLAKQKTTYANQVYPVLIGACLCPETPISELEPYLDQIDVIQLLTLDPRNGTKYPSELILDRVIQVEKRLGNRRVEKLINIDGSMTLELAKYFKQGTHQIDWLVSGSALFSGELKTNLKVWKSSIM
soluble on expression in E. coli: soluble

KEYFSVWMEDIIYFENSGRNVKIMTIDGTDLFVGNIKDIAKEVLPYGFIQISQSIIVNYNFVSKYSREEIILINKEKIAIPKNKRNGVKEQFL
soluble on expression in E. coli: not soluble

GMELKDIMHILEDMKVGVFATLDEYGNPHARHAHITAANEEGIFFMTSPETHFYDQLMGDQRVAMTAISEEGYLIQVVRVEGTARPVENDYLKTVFADNPYYQHIYKDESSDTMQVFQIYAGHGFYHSLTQGHKYIFSIGQGEHSEVRAL
soluble on expression in E. coli: soluble

EVKEEDAFYSKKCKLFYKKDNEFKEKGIGTLHLKPTANQKTQLLVRADTNLGNILLNVLIPPNMPCTRTGKNNVLIVCVPNPPIDEKNATMPVTMLIRVKTSEDADELHKILLEKKDA
soluble on expression in E. coli: soluble

MGSDKIHHHHHHATPAEIPFDAVLAGQTPMLFKGLVRDWPLVQAGLGSPQAARDYIRAHDRGVPVVGYTGDPAIKGRFFYNDTLTGLNFKAERAPLEAFLGRIEAVEGQENAPAIYIGSTDLDAYFPSLKAENDLGLGPEVYGPQPPMAGIWLGNRTVAAAHYDMSNNIAVCAVGRRRFTLFPPDQVANLYPGPLEPTPGGQVVSMVDFETPDFDRHPRFREALASAQVAEMEPGDVLVYPALWWHQVEALDGFNVLMNYWWNATPAFVDTPMTTLLHGLLSLRDRPDFEKQGWKALFDYYVFGPAERAGAHLPDDARGPLGALDDLKARRLRAWLLDRLNR
soluble on expression in E. coli: not soluble

MYVVINIDPGSTLNELMAFMTQKTITFSVTDQLSRLCDRTANGDRREVCTQTDDNCFDPPPNKKSKGYNGEDYGSPCSSATPSEPVDLGILTKTNGNSNGNHNWDTESKVLRGLIRSENGRSKSSIKEEPEEASVEDDISTEYMQNQLMQALFPKNQNGSGLANFASLEDNESIEGESGGLSDLGGFNMDSSSPASAIRYKPAYASTKRGVCRVCNREVSLITTHRRRHAITHLGFKTLKCALCYKFFSRQDLATGHFKKDHPTSEFMPFVDTMSPEDERQLVVMMELCFPEETGPRKRKDTDPKKQKVGEVEDSF
soluble on expression in E. coli: not soluble

MAHHHHHHMSEARQIQSMIDFIEREAQEKAEELEAAAQEEYDVEKMRLVEAEKAKIRAMAEKKLKQVDVDRRVARANYSKVQRMRVMEERARTMEKLHEQTRQKIVAMVNNPPQYKPMLVRLIHQSLMSIRTDAVVQCRKEDEAEVVRSIPELERWYKEKTGATISIQTSKTYLDTAEAWGGVVVKSTDGRVVCNNTLSYRTKTCFDEQLPTVRFHLFNPDAPL
soluble on expression in E. coli: soluble

MSGKLTVITGPMYSGKTTELLSFVEIYKLGKKKVAVFKPKIDSRYHSTMIVSHSGNGVEAHVIERPEEMRKYIEEDTRGVFIDEVQFFNPSLFEVVKDLLDRGIDVFCAGLDLTHKQNPFETTALLLSLADTVIKKKAVCHRCGEYNATLTLKVAGGEEEIDVGGQEKYIAVCRDCYNTLKKRV
soluble on expression in E. coli: soluble

MDNKLGLNKMNKTLIALAVSAAAVATGAYADGINQSGDKAGSTVYSAKGTSLEVGGRAEARLSLKDGKAQDNSRVRLNFLGKAEINDSLYGVGFYEGEFTTNDQGKNASNNSLDNRYTYAGIGGTYGEVTYGKNDGALGVITDFTDIMSYHGNTAAEKIAVADRVDNMLAYKGQFGDLGVKASYRFADRNAVDAMGNVVTETNAAKYSDNGEDGYSLSAIYTFGDTGFNVGAGYADQDDQNEYMLAASYRMENLYFAGLFTDGELAKDVDYTGYELAAGYKLGQAAFTATYNNAETAKETSADNFAIDATYYFKPNFRSYISYQFNLLDSDKVGKVASEDELAIGLRYDF
soluble on expression in E. coli: not soluble

MGVLQATVLWAGPIPRVGNPPNWTSPSSSGLLFFYFFFTSTSDFTMEAPPAPKKARRSEVSRMQDESVLCDDDEEDSPFTLYFVDLPNEPTVKEIRNLEELFKTAKAVGIMPEWIDSDALEDLQKSEDFFVLPCFRGKLFRKLQARKLKVYGPPIVLESIEDGKQLPQWNHPVYSSVFQDVKISFTGLNLTKKQELYEKIGWMCGVVGDALYHETTHLVTEKAEQTEKYKAAVNNSIKLMRIGWIDDLWETSQTTMGRFSALSRDSVNSYALRVFEGLEMAITSIDGADRTNFIQLIEDHGGKVPGTMSKTRFFFSVFHYKICSFLGALLSIQMMLPEKAFYRKYHPKYLTADHIRSSTPKRDANVTESVPDISSIAGHGGRLGTSSFNSSIPQMDQSYQHQSGSSFISFASTSKIPSSTFTNNDSTLGRSGSGVRDGISTPIARVQTTPLIRYPTTQTASVQNIADVISDPIDELRKNIDDGLGDLFENCMFYICGVDESRMEKWRRFLNETGATRVAKFTSATNVVVVSPNQQERITIRKHLHQEDIAIVTVGWVVECVKQRKMISVEGYQWTENTADESQSSQSQLQPVRPQPLPRTSSKSTIPYGKTSGPSSTSTQVGIFSYHTYCVHCSVDQEVSDDLKEKIPLNGGKLMDDPDYAEFVIFGHSGPMHELISFDAVVTDFYIYASIGNNRFLNRSCYPLFVPLPRPPILIFNQRGFQLKCKDPFLRDRVRDIIEDNGGRIVEQLEPKDFIIMIDAEDNPPRYHSRTLDFSWIIASVSRCRLQPIDNFLYKNNTRPLSGFQRDDDLWEKCSREKNNSTQEMEVEVEDRHRVQDLPVETGNGNIGDMTTPYVNPYFPDLRKPYTMNLQLDGVSEYINNMESPARETQETLTTSRVGSILRKAVVNTGRNEDFEDEPSTCHLIRPRVPENRKTVSSTPVLVRDVNRSMRYMPMDESFADQNQEHEDLNRRYAMNPRFLLSVSNMDPQRAADLQETIMKLGGTIEREFNKDVTHLIASNMQRAPKVLCSIAAGKWCLTPDYVTKSAEVGRWLDEKSFEWTREKLLACSKKNESLKERDSRKVSENLAAVCGLWRQRVAEMPVTFSVSMENRQNGAFSDWRCVIHLDDKRAGVFSSILEAGGAIVHSISEYVEVSTLKPNIVLASKEFPWNPQSAVLLKRDNIPIYVFDILYDFLIDRDNLNRTKFWHNVYMKA
soluble on expression in E. coli: not soluble

MGSDKIHHHHHHMASSENTKNGNGGTLGFEAELFKAADKLRGNMEPSDYKHVALGLIFLKYISDAFEARHKALLAEDVRAAEDKDEYLADNVFWVPKEARWSHLQANAKLPAIGTLIDDAMRAIEKDNESLKGVLPKDYARPALNKVMLGELIDLISGIALNEEGDRSKDILGRVYEYFLGQFAGAEGKRGGEFYTPRSVVRVLVEMLEPYSGRVYDPCCGSGGMFVQSEKFVHEHGGRIGDIAIYGQESNYTTWRLAKMNLAVRGIDSDIRWNNEGSFHKDELRDLKADYVLANPPFNISDWGGDRLREDVRWKFGAPPVGNANYAWLQHIFHHLAPNGTAGVVLANGSMSSNQSGEGEIRRAMIEADAVDCMVALPGQLFYSTQIPACLWFLARNKNPGGGLRDRRGQVLFIDARKLGVLIDRTRRELNDDDIKRIADSYHAWRGEKEAGEYADVLGFCKSASLDEIRKHGHVLTPGRYVGAEAQADDGEPFDEVMRRLSAQWRAQQLEGQRVDDAIERNLRELGYGQ
soluble on expression in E. coli: not soluble

MAHHHHHHMRCFSTKSTAPTKGFHDNASGKGSNSVPVKSSALFIEALSKRRTIYSLGNKLSQSHSEVIEIIEGTIRECPSSFNIKSSTVVILFGADHQKVWDIVKAALKKVTSEEQYAQSEMKVNNSFAAGAGTILFYEDGAAIKMQQKAFPRYAANVSTFSQQSSAMAQFAVWSALAQDGIGASLQHYNELIEADLRAAFDVPEEWQLIAQMPFGSIETPADKKTRNSDKGRVVVHGAQR
soluble on expression in E. coli: soluble

MYSCTSPSGIKVSLSTPEIWEEFYPKTEMIVTRNRGRVIFPHLDYIIKGLDPGSLYSIYIHLERVDGIKYKFDAGEWKEFAKGDPILPIQYKEHPRGKRTGAEWMSEPVSFAHIKITNNPEIKDQKVILVQSMHKHIPVVTVKQVRHYKTGYQEDFSGEQFRLEATEFMVVTAYQNEILKNLKVHHNKFASGFRSNGKRRLSSDSENSENSPPKRSKLVTPPTISPQIDLPQQTPYYFNQNFVAPQNYQPQFASAQNYNFEVQNNAQLAWNMYYQKQYEFWWQQQQMMMPGQPQELKNEFQSL
soluble on expression in E. coli: not soluble

MSGWPRIYYKLLNLPLSILVKSKSIPAEPAQELGLDTSRPIMYVLPYNSKADLLTLRAQCLAHDLPDPLEPLEIDGALLPRYVFIHGGPRVFTYYTPKEESVKLFHDYLDLHRSNPALDVQMVPVSVMFGRAPGREKGEDNPPLRMLNGVQKFFAISWLGRDSFVRFSPSVSLRRMADEHGTDKIIAQKLARVARMHFARQRLAAVGPRLPARQDLFNKLLASKAIARAVEDEARSKKISHEKAQQNAIALMEEIAANFSYEMIRLTDRILGFTWNRLYQGINVHNAERVRQLAHDGHEIVYVPCHRSHMDYLLLSYVLYHQGLVPPHIAAGINLNFWPAGPIFRRLGAFFIRRTFKGNKLYSTVFREYLGELFSRGYSVEYFVEGGRSRTGRLLDPKTGTLSMTIQAMLRGGTRPITLVPIYIGYEHVMEVGTYAKELRGATKEKESLPQMLKGLSKLRNLGQGYVNFGEPMPLMTYLNQHVPEWRESIDPIEAIRPAWLTPTVNSIAADLMVRINNAGAANAMNLCCTALLASRQRSLTREQLTEQLDCYLDLMRNVPYSTDSTVPAASAGELIAHALQMNKFEVEKDTIGDIIILPREQAVLMTYYRNNIAHMLIMPSLMAAIITQHRRISRDALQQHVEALYPMLKAELFLRWEREELASVIDALASEMQRQGLITLQDDELHINPTHSRTLQLLAAGARETLQRYAITFWLLSANPSINRSTLEKESRTVAQRLSVLHGINAPEFFDKAVFSSLVLTLRDEGYISDTGDAEPAETMKIYQMLADLITSDVRLTIESATQGE
soluble on expression in E. coli: not soluble

HWVTPDGQPGPSGEGGFTAESGRYHLFVSLACPWAHRTLIFRHLKDLQAHIGITIVDPRMLEHGWAFSEISRDNPVQDIRYLHQLYTRAKPDYTGRVTVPVLWDKQRDTIVSNESADIIRMFNSAFDSLTGNDLDFYPEALRNEIGTINEVVYRDFNN
soluble on expression in E. coli: not soluble
